B1: Stu2-HA (wild-type Stu2, 3xHA tagged) [S. cerevisiae] / γ-tubulin (Tub4) [S. cerevisiae (endogenous in yeast extract)] (parent)
chain 1: MSGEEEVDYTTLPLEERLTYKLWKARLEAYKELNQLFRNSVGDISRDDNIQIYWRDPTLFAQYITDSNVVAQEQAIVALNSLIDAFASSSLKNAHNITLISTWTPLLVEKGLTSSRATTKTQSMSCILSLCGLDTSITQSVELVIPFFEKKLPKLIAAAANCVYELMAAFGLTNVNVQTFLPELLKHVPQLAGHGDRNVRSQTMNLIVEIYKVTGNNSDLLEEILFKKLKPIQVKDLHKLFAKVGDEPSSSKMLFEWEKRELEKKRSQEEEARKRKSILSNDEGEYQIDKDGDTLMGMETDMPPSKQQSGVQIDTFSMLPEETILDKLPKDFQERITSSKWKDRVEALEEFWDSVLSQTKKLKSTSQNYSNLLGIYGHIIQKDANIQAVALAAQSVELICDKLKTPGFSKDYVSLVFTPLLDRTKEKKPSVIEAIRKALLTICKYYDPLASSGRNEDMLKDILEHMKHKTPQIRMECTQLFNASMKEEKDGYSTLQRYLKDEVVPIVIQIVNDTQPAIRTIGFESFAILIKIFGMNTFVKTLEHLDNLKRKKIEETVKTLPNFSIASGSTHSTIETNKQTGPMENKFLLKKSSVLPSKRVASSPLRNDNKSKVNPIGSVASASKPSMVAANNKSRVLLTSKSLATPKNVVANSTDKNEKLIEEYKYRLQKLQNDEMIWTKERQSLLEKMNNTENYKIEMIKENEMLREQLKEAQSKLNEKNIQLRSKEIDVNKLSDRVLSLENELRNMEIELDRNKKRNDTNLQSMGTISSYSIPSSTVSSNYGVKSLSSALPFKEEEDVRRKEDVNYERRSSESIGDLPHRVNSLNIRPYRKNGTGVSSVSDDLDIDFNDSFASEESYKRAAAVTSTLKARIEKMKAKSRREGTTRT
chain 2: MGGEIITLQAGQCGNHVGKFLWSQLAKEHAIGTDGLSQLPDSSTERDDDTKPFFRENSRNKFTPRAIMMDSEPSVIADVENTFRGFFDPRNTWVASDGASAGNSWANGYDIGTRNQDDILNKIDKEIDSTDNFEGFQLLHSVAGGTGSGLGSNLLEALCDRYPKKILTTYSVFPARSSEVVVQSYNTILALRRLIEDSDATVVFDNASLLNISGKVFRNPNIDLQHTNQLISTIISSVTNSIRFPSYMYSSMSSIYSTLIPSPELHFLSPSFTPFTSDYIHDDIAHKGHSSYDVMLDLLDPSNSLVSTAMNNPTYFNVYNTIIGNVEPRQISRAMTKLQQRIKFPSWSSSAMHVNIGRRSPYLPLQPNENEVSGMMLSNMSTVVNVFENACNTFDKVFAKGAFLNNYNVGDLFQSMQNVQDEFAESREVVQSLMEDYVAAEQDSYLDDVLVDDENMVGELEEDLDADGDHKLV

Variants of: B1
Experiment: co-immunoprecipitation, western blot densitometry
Conditions: with γ-tubulin (Tub4) [S. cerevisiae (endogenous in yeast extract)], PBS buffer, three biological replicates, read off a plot; for screen value: parent: 0; for ratio to parent: parent: 1

Variant	screen value	ratio to parent
chain 1 K252R K469R K870R	-3	–
chain 1 K252Q K469Q K870Q	1.8	5.5
chain 1 K469Q	1.5	4
chain 1 K252Q K469Q	1	2.5
chain 1 K252R K469R	-0.5	0.7
chain 1 K469R	0.75	2.2
chain 1 K870Q	-0.6	0.9
chain 1 K252R	-0.05	1.2
chain 1 K252Q	1.8	7
chain 1 K870R	0.1	1.5

Source: article PMC9491610
